Measured values from IntAct's records for PubMed 29656893.

B1: Shieldin complex subunit 3 (Homo sapiens), Q6ZNX1 (parent)
chain: MTTEVILHYRPCESDPTQLPKIAEKAIQDFPTRPLSRFIPWFPYDGSKLPLRPKRSPPVISEEAAEDVKQYLTISEHDAKSHSYDCTVDLLEFQPSLKKQHLTWSHTLKEQTNSGNLGKQSEKGKQHKRRSWSISLPSNNCTKNVSPLSKKLQDSLKALNLHSLYRARWTIEHTICNSQTLEDIWTKLNQIIRHNELPSCNATIQRHLGQIWVFCDIMYCEYVGSLLKGRLALTGKINLFVHKYGVIFSM

Variants of: B1
Conditions: with md2l2_human MAD2L2, Q9UI95
Sequence of md2l2_human MAD2L2, Q9UI95 (Q9UI95 whole entry): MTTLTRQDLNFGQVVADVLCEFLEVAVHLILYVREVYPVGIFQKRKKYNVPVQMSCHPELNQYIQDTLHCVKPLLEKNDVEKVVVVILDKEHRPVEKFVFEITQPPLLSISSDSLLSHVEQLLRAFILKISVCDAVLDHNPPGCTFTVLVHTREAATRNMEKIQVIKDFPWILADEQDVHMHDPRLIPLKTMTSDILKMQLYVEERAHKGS

Variant	effect of a mutation on the interaction
P53A;P58A	disrupting interaction strength
